Target: T1, human type α platelet derived growth factor receptor (T11 gene product) (human, UniProt P16234 24-1089)
T1 construct: In western blots and immunoprecipitations it came from cell lysates; also called type α PDGF-R; α PDGFR
Assay: Scatchard analysis of PDGF-BB binding to 32D-αR transfectants

T1 sequence (P16234 24-1089): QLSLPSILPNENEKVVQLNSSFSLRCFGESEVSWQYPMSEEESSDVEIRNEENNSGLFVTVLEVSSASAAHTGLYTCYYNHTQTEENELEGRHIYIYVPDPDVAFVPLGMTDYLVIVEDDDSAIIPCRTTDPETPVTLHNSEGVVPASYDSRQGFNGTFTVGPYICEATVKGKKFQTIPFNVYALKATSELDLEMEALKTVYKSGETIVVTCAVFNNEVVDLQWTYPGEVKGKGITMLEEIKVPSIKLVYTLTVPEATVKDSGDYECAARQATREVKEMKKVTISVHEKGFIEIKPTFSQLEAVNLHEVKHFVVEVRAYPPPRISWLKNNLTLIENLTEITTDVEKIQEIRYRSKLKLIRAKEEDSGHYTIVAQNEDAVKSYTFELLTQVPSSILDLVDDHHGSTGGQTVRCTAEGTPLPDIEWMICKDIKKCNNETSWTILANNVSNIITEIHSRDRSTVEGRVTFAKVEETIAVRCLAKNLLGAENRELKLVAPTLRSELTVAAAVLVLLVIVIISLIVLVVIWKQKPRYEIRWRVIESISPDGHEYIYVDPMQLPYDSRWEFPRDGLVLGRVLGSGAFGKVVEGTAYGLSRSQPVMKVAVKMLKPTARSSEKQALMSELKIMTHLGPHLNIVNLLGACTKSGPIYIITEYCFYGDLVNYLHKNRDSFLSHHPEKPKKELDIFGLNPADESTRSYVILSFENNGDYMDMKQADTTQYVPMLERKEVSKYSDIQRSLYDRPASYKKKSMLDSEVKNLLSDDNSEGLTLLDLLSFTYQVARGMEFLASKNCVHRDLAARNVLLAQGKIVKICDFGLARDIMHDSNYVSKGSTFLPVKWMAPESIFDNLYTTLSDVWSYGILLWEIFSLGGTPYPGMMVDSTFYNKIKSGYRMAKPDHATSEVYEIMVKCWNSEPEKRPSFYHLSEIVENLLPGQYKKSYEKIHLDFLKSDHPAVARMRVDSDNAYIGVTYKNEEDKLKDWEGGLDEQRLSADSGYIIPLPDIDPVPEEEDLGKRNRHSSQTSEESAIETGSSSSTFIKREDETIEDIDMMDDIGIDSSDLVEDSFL

B1: recombinant PDGF-BB (ligand, UniProt P01127 82-190, looked up)
chain: SLGSLTIAEPAMIAECKTRTEVFEISRRLIDRTNANFLVWPPCVEVQRCSGCCNNRNVQCRPTQVQLRPVQVRKIEIVRKKPIFKKATVTLEDHLACKCETVAAARPVT
notes: Homodimer of B chains; also called BB homodimer
  Kd: 0.4 nM
